Data taken from IntAct's records for PubMed 9461438.

B1: WD repeat-containing protein slp1 (Schizosaccharomyces pombe (strain ATCC 38366 / 972)), P78972 (parent)
chain: MEIAGNSSTISPTFSTPTKKRNLVFPNSPITPLHQQALLGRNGRSSKRCSPKSSFIRNSPKIDVVNTDWSIPLCGSPRNKSRPASRSDRFIPSRPNTANAFVNSISSDVPFDYSESVAEACGFDLNTRVLAFKLDAPEAKKPVDLRTQHNRPQRPVVTPAKRRFNTTPERVLDAPGIIDDYYLNLLDWSNLNVVAVALERNVYVWNADSGSVSALAETDESTYVASVKWSHDGSFLSVGLGNGLVDIYDVESQTKLRTMAGHQARVGCLSWNRHVLSSGSRSGAIHHHDVRIANHQIGTLQGHSSEVCGLAWRSDGLQLASGGNDNVVQIWDARSSIPKFTKTNHNAAVKAVAWCPWQSNLLATGGGTMDKQIHFWNAATGARVNTVDAGSQVTSLIWSPHSKEIMSTHGFPDNNLSIWSYSSSGLTKQVDIPAHDTRVLYSALSPDGRILSTAASDENLKFWRVYDGDHVKRPIPITKTPSSSITIR
partner: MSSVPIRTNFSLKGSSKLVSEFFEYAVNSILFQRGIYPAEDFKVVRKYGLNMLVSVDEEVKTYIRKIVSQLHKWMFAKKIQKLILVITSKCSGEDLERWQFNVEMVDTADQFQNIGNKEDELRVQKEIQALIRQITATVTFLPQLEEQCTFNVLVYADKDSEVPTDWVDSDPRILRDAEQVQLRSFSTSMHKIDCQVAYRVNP

Variants of: B1
Details: with mad2_schpo mad2, O14417

Variant	effect of a mutation on the interaction
MEIAGNSSTISPTFSTPTKKRNLVFPNSPITPLHQQALLGRNGRSSKRCSPKSSFIRNSPKIDVVNTDWSIPLCGSPRNKSRPASRSDRFIPSRPNTANAFVNSISSDVPFDYSESVAEACGFDLNTRVLPYKLDAPEAKKPVDLRTQHNRPQRPVVTPAKRRFNTTPERVLDAPGIIDDYYLNLLDWSNLNVVAVALERNVYVWNADSGSVSALAETDESTYVASVKWSHDGSFLSVGLGNGLVDIYDVESQTKLRTMAGHQARVGCLSWNRHVLSSGSRSGAIHHHDVRIANHQIGTLQGHSSEVCGLAWRSDGLQLASGGNDNVVQIWDARSSIPKFTKTNHNAAVKAVAWCPWQSNLLATGGGTMDKQIHFWNAATGARVNTVDAGSQVTSLIWSPHSKEIMSTHGFPDNNLSIWSYSSSGLTKQVDIPAHDTRVLYSALSPDGRILSTAASDENLKFWRVYDGDHVKRPIPITKTPSSSITIR [A131P;F132Y]	disrupting interaction
